Experiments:
[1] = molecular target: Dopamine-receptor type-5 (DR-5) on primary cilia of cultured cells; assay: live single-cell fluorescence imaging of perfused fluorescent nanoparticles on the cilium
[2] = molecular target: Dopamine-receptor type-5 (DR-5) on primary cilia of cultured cells; assay: fluorescence intensity in non-permeabilized live cells
[3] = molecular target: Dopamine-receptor type-5 (DR-5) on primary cilia of cultured cells; assay: live single-cell-single-cilium fluorescence intensity per area
[4] = tested on: p-ERK; assay: Immunoblotting of phosphorylated ERK; type: cell-based; settings: PKG inhibition
Procedure: Immunoblotting. […] Samples were kept on ice during sonication to prevent overheating. Samples were then centrifuged at 15,000 rpm for 20 min, and the supernatants were collected and subjected to protein quantification. The PAGE (polyacrylamide gel electrophoresis) on 6-10% SDS gels was performed followed by semi-dry transfer to PVDF membranes using a Bio-Rad Trans-Blot Turbo Transfer System and detection using antibodies against t-ERK (1:1,000), p-ERK (1:1,000), NOS (1:200), and GAPDH (1:2,000) (Cell Signaling Technology). Blots were scanned with both calorimetry to image molecular markers and chemiluminescence to capture the protein signal intensity using a Bio-Rad imager.

CT-DAu-NPs (cilia-targeted dopaminergized gold nanoparticles carrying DR-5-AF594 antibody and fenoldopam)
binding kinetics to cilia [1]: 0.21 min⁻¹

CT-Fe2O3-NPs (antibody- and fenoldopam-loaded Sunbright-40-OA-Fe2O3-NPs)
ratio of cilia-to-cell body specificity [2]: 158 | proportion of specific binding cilium:cell:background (relative to background = 1) [3]: 17000

Nc1nc2c(nc(Sc3ccc(Cl)cc3)n2C2OC3COP(O)(=S)OC3C2O)c(=O)[nH]1 (centres unmarked) [Rp-8pCPT-cGMP]
flow-induced effect of NPs on ERK phosphorylation [4]: reduced the flow-induced effect of NPs on ERK phosphorylation

CT-PLGA-NPs (cilia-targeted PLGA nanoparticles carrying DR-5-AF594 antibody and fenoldopam)
binding kinetics to cilia [1]: 0.26 min⁻¹

Source: patent publication US20210259954A1, “CILIA-TARGETING NANOPARTICLES” (Chapman University, priority 2019, published 2021)
